How the values were obtained:
Assay in all cases: split reporter (BiFC, NanoBiT); SFLC in living Arabidopsis mesophyll protoplasts: Aux/IAA-FLucN or MYB30-FLucN co-expressed with ARFCTD-FLucC or Aux/IAA-FLucC for 6 hr; 10 µg of each construct, 2×10^4 cells, 96-well plate, D-luciferin; relative activity standardised against ARF5CTD-FLucC + IAA28-FLucN
Details in all cases: partners not purified
IAA17-FLucC = biological target: T1, IAA17-FLucC (Arabidopsis, UniProt P93830 1-229)
T1 construct: Arabidopsis Aux/IAA protein IAA17; also called Aux/IAA-FLucC; source: Arabidopsis mesophyll protoplasts, transfected, in living cells; not shown: FLucC (firefly luciferase aa 394-550)

IAA1-FLucC = biological target: T2, IAA1-FLucC (Arabidopsis, UniProt P49677 1-168)
T2 construct: Arabidopsis Aux/IAA protein IAA1; also called Aux/IAA-FLucC; source: Arabidopsis mesophyll protoplasts, transfected, in living cells; not shown: FLucC (firefly luciferase aa 394-550)
T2 sequence (looked up): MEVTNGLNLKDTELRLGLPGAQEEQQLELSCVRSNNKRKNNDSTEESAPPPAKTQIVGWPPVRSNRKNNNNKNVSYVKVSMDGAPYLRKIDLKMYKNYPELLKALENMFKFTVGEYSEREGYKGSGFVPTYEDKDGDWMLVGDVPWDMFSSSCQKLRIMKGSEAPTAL

[1] = biological target: T3, ARF1 C-terminal domain (CTD)-FLucC (Arabidopsis, UniProt Q8L7G0 542-665)
T3 construct: Arabidopsis auxin response factor 1, C-terminal dimerization domain (CTD); In the ARF-ARF tests the same CTD stood both as ARFCTD-FLucC and as ARFCTD-FLucN (FLucN, firefly luciferase aa 1-398, in place of FLucC); one molecule for both; also called ARF1CTD-FLucC; ARFCTD-FLucC; source: Arabidopsis mesophyll protoplasts, transfected, in living cells (SFLC) and in lysate (co-IP); not shown: FLucC …
T3 sequence (looked up): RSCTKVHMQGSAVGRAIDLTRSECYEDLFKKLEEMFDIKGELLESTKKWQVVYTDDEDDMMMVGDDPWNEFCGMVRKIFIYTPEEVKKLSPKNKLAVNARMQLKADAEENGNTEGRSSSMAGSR

IAA19-FLucC = biological target: T4, IAA19-FLucC (Arabidopsis, UniProt O24409 1-197)
T4 construct: Arabidopsis Aux/IAA protein IAA19; also called Aux/IAA-FLucC; source: Arabidopsis mesophyll protoplasts, transfected, in living cells; not shown: FLucC (firefly luciferase aa 394-550)
T4 sequence (looked up): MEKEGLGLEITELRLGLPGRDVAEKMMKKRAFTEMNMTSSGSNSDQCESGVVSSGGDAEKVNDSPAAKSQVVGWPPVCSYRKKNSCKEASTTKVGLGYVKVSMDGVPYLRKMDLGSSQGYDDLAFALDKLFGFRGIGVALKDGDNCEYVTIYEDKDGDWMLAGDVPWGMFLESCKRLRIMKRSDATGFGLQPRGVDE

[2] = biological target: T5, ARF12 C-terminal domain (CTD)-FLucC (Arabidopsis, UniProt Q9XID4 511-593)
T5 construct: Arabidopsis auxin response factor 12, C-terminal dimerization domain (CTD); In the ARF-ARF tests the same CTD stood both as ARFCTD-FLucC and as ARFCTD-FLucN; one molecule for both; also called ARF12CTD-FLucC; ARFCTD-FLucC; source: Arabidopsis mesophyll protoplasts, transfected, in living cells; not shown: FLucC (firefly luciferase aa 394-550)
T5 sequence (looked up): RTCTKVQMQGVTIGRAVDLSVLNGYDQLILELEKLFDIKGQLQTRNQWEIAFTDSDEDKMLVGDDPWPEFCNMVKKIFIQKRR

IAA6-FLucC = biological target: T6, IAA6-FLucC (Arabidopsis, UniProt Q38824 1-189)
T6 construct: Arabidopsis Aux/IAA protein IAA6; also called Aux/IAA-FLucC; source: Arabidopsis mesophyll protoplasts, transfected, in living cells; not shown: FLucC (firefly luciferase aa 394-550)
T6 sequence (looked up): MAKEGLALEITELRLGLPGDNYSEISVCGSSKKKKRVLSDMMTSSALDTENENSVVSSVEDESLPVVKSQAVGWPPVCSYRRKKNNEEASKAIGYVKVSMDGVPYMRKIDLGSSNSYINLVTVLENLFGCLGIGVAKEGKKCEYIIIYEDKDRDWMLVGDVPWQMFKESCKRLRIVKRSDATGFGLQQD

Measured: relative luciferase activity (standardised against ARF5CTD-FLucC + IAA28-FLucN)

T1 sequence (P93830 whole entry, the tested form may be a part): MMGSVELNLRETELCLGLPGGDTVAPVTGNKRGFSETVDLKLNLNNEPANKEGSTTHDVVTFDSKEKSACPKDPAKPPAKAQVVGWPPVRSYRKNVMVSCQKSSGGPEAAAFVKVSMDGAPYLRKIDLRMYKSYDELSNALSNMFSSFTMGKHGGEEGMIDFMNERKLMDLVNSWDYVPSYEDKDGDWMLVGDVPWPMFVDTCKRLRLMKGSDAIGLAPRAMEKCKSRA

B1: MYB30-FLucN (natural protein, UniProt Q9SCU7 1-323, looked up)
chain: MVRPPCCDKGGVKKGPWTPEEDIILVTYIQEHGPGNWRAVPTNTGLLRCSKSCRLRWTNYLRPGIKRGNFTEHEEKMIVHLQALLGNRWAAIASYLPQRTDNDIKNYWNTHLKKKLNKVNQDSHQELDRSSLSSSPSSSSANSNSNISRGQWERRLQTDIHLAKKALSEALSPAVAPIITSTVTTTSSSAESRRSTSSASGFLRTQETSTTYASSTENIAKLLKGWVKNSPKTQNSADQIASTEVKEVIKSDDGKECAGAFQSFSEFDHSYQQAGVSPDHETKPDITGCCSNQSQWSLFEKWLFEDSGGQIGDILLDENTNFF
notes: transcription factor MYB30, the unrelated protein used as negative control; source: Arabidopsis mesophyll protoplasts, transfected, in living cells; not shown: FLucN (firefly luciferase aa 1-398)
< 0.1: all assays above

From paper PMC3212559, “Large-Scale Protein-Protein Interaction Analysis in Arabidopsis Mesophyll Protoplasts by Split Firefly Luciferase Complementation” (PLoS ONE, 2011)
